From article PMC12557367 (2025)
Numbered stars: 1 amine (or outer) side, 2 acyl side, 3 side chain; on linkers, the order of the positions; unused ones are H or OH. Bridge positions count the residues as written; N and C are the ends. Square brackets hold non-standard residues; d marks the D form. * marks the point of attachment. (R)‑NODAGA = O=C(O)CN1CCN(CC(=O)O)CCN([C@H](CCC(=O)*)C(=O)O)CC1; DOTA = O=C(O)CN1CCN(CC(=O)O)CCN(CC(=O)*)CCN(CC(=O)O)CC1; TATA = O=C(CC[*:1])N1CN(C(=O)CC[*:2])CN(C(=O)CC[*:3])C1; Cys(et) = S-ethylcysteine, CCSC[C@H](N[*:1])C(=O)[*:2]; Ser(et) = O-ethylserine, CCOC[C@H](N[*:1])C(=O)[*:2]; 1Nal = N[C@@H](Cc1cccc2ccccc12)C(=O)O; 2Nal = N[C@@H](Cc1ccc2ccccc2c1)C(=O)O; Hyp = O=C(O)[C@@H]1C[C@@H](O)CN1; hArg = N=C(N)NCCCC[C@H](N)C(=O)O; Met(O) = CS(=O)CC[C@H](N)C(=O)O; SeMet = C[Se]CC[C@H](N)C(=O)O; Nle = CCCC[C@H](N)C(=O)O

B1: 7 (peptide)
chain: {(R)‑NODAGA}-CP[1Nal][dD]C[Cys(et)][hArg]DWSTP[Hyp]WC-NH2
modifications: linker 1-5-15 via TATA
SMILES: CCSC[C@@H]1NC(=O)[C@@H]2CSCCC(=O)N3CN(CN(C3)C(=O)CCSC[C@H](NC(=O)CC[C@H](C(=O)O)N3CCN(CC(=O)O)CCN(CC(=O)O)CC3)C(=O)N3CCC[C@H]3C(=O)N[C@@H](Cc3cccc4ccccc34)C(=O)N[C@H](CC(=O)O)C(=O)N2)C(=O)CCSC[C@@H](C(N)=O)NC(=O)[C@H](Cc2c[nH]c3ccccc23)NC(=O)[C@@H]2C[C@@H](O)CN2C(=O)[C@@H]2CCCN2C(=O)[C@H]([C@@H](C)O)NC(=O)[C@H](CO)NC(=O)[C@H](Cc2c[nH]c3ccccc23)NC(=O)[C@H](CC(=O)O)NC(=O)[C@H](CCCCNC(=N)N)NC1=O
B2: 6 (peptide)
chain: {(R)‑NODAGA}-CP[1Nal][dD]C[Ser(et)][hArg]DWSTP[Hyp]WC-NH2
modifications: linker 1-5-15 via TATA
SMILES: CCOC[C@@H]1NC(=O)[C@@H]2CSCCC(=O)N3CN(CN(C3)C(=O)CCSC[C@H](NC(=O)CC[C@H](C(=O)O)N3CCN(CC(=O)O)CCN(CC(=O)O)CC3)C(=O)N3CCC[C@H]3C(=O)N[C@@H](Cc3cccc4ccccc34)C(=O)N[C@H](CC(=O)O)C(=O)N2)C(=O)CCSC[C@@H](C(N)=O)NC(=O)[C@H](Cc2c[nH]c3ccccc23)NC(=O)[C@@H]2C[C@@H](O)CN2C(=O)[C@@H]2CCCN2C(=O)[C@H]([C@@H](C)O)NC(=O)[C@H](CO)NC(=O)[C@H](Cc2c[nH]c3ccccc23)NC(=O)[C@H](CC(=O)O)NC(=O)[C@H](CCCCNC(=N)N)NC1=O

Target: T1, recombinant human nectin-4 (human, UniProt Q96NY8 32-349)
T1 chain: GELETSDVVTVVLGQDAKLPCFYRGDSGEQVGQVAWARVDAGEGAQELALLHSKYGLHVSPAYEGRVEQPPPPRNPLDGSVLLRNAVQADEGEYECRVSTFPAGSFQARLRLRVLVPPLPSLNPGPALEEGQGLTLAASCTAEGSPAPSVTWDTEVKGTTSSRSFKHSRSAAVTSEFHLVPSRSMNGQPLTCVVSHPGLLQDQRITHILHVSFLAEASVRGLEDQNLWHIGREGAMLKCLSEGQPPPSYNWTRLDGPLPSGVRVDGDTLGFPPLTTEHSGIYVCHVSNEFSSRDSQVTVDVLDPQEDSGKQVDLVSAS
Assay: FP

Going from {(R)‑NODAGA}-CP[2Nal][dD]CM[hArg]DWSTP[Hyp]WC-NH2 (linker 1-5-15 via TATA) [9] to {(R)‑NODAGA}-CP[1Nal][dD]CM[hArg]DWSTP[Hyp]WC-NH2 (linker 1-5-15 via TATA; also: NODAGA complexed with natCu) [natCu-1e], the IC50 falls from 270 nM to 23.7 nM (11-fold).

Compared with B1, Ac-CP[1Nal][dD]C[Nle][hArg]DWSTP[Hyp]WC-NH2 (linker 1-5-15 via TATA) [3b] is 4.8-fold lower in IC50: 151 nM for the first, 31.5 nM for the second.

{(R)‑NODAGA}-CP[1Nal][dD]C[SeMet][hArg]DWSTP[Hyp]WC-NH2 (linker 1-5-15 via TATA) [5] and {(R)‑NODAGA}-CP[1Nal][dD]C[Nle][hArg]DWSTP[Hyp]WC-NH2 (linker 1-5-15 via TATA) [3a] are within 1.5-fold of each other in IC50: 48.7 nM for the first, 41.6 nM for the second.

First: {DOTA}-CP[1Nal][dD]CM[hArg]DWSTP[Hyp]WC-NH2 (linker 1-5-15 via TATA) [1f]
Second: {(R)‑NODAGA}-CP[1Nal][dD]CM[hArg]DWSTP[Hyp]WC-NH2 (linker 1-5-15 via TATA) [1e]
The IC50 of the first is 5-fold higher: 177 nM for the first, 35.6 nM for the second. The second is the more potent here.

Compared with {(R)‑NODAGA}-CP[1Nal][dD]C[Met(O)][hArg]DWSTP[Hyp]WC-NH2 (linker 1-5-15 via TATA) [2], {(R)‑NODAGA}-CP[1Nal][dD]CM[hArg]DWSTP[Hyp]WC-NH2 (linker 1-5-15 via TATA; also: NODAGA complexed with natGa) [natGa-1e] is 2.8-fold lower in IC50: 568 nM for the first, 203 nM for the second. The second is the more potent here.

Ac-CP[1Nal][dD]CM[hArg]DWSTP[Hyp]WC-NH2 (linker 1-5-15 via TATA) [1d (BCY8126)] and {(R)‑NODAGA}-CP[1Nal][dD]CMRDWSTP[Hyp]WC-NH2 (linker 1-5-15 via TATA) [10] are within 1.5-fold of each other in IC50: 34.7 nM for the first, 32.1 nM for the second.

H-CP[1Nal][dD]CM[hArg]DWSTP[Hyp]WC-NH2 (linker 1-5-15 via TATA) [1c] and {(R)‑NODAGA}-CP[1Nal][dD]C[Nle][hArg]DWSTP[Hyp]WC-NH2 (linker 1-5-15 via TATA; also: NODAGA complexed with natCu) [natCu-3a] are within 1.5-fold of each other in IC50: 51.8 nM for the first, 45.4 nM for the second.

Compared with {(R)‑NODAGA}-CP[2Nal][dD]CMRDWSTP[Hyp]WC-NH2 (linker 1-5-15 via TATA) [8a], {DOTA}-CP[2Nal][dD]CMRDWSTP[Hyp]WC-NH2 (linker 1-5-15 via TATA) [8c] is 6.9-fold higher in IC50: 479 nM for the first, 3290 nM for the second.

First: {DOTA}-CP[2Nal][dD]CMRDWSTP[Hyp]WC-OH (linker 1-5-15 via TATA) [8d (N188)]
Second: B2
The IC50 of the first is 11-fold higher: 4220 nM for the first, 379 nM for the second. The second is the more potent here.

Target: T1, recombinant human nectin-4
Assay: SPR

First: {(R)‑NODAGA}-CP[2Nal][dD]CM[hArg]DWSTP[Hyp]WC-NH2 (linker 1-5-15 via TATA) [9]
Second: {(R)‑NODAGA}-CP[1Nal][dD]CMRDWSTP[Hyp]WC-NH2 (linker 1-5-15 via TATA) [10]
The koff of the first is 12-fold higher: 0.0361 s⁻¹ for the first, 0.00308 s⁻¹ for the second.

Target: T1, recombinant human nectin-4
Assay: SPR
Remark: another data set of the same source

Binder {(R)‑NODAGA}-CP[2Nal][dD]CM[hArg]DWSTP[Hyp]WC-NH2 (linker 1-5-15 via TATA) [9] has a Kd of 2.85 nM.
